Source: US20250161419A1, “SERPIN PEPTIDES AND METHODS OF USING THE SAME” (SERPIN PHARMA, LLC, priority 2022, published 2025)

How the values were obtained:
phospho-ERK1/2 = assay: Cell signaling analysis in PC12 cells, immunoblot of phospho-ERK1/2; assay type: cell-based, rat; conditions: 48 h after transfection
Description: Cell signaling analysis: Rat PC12 cells were purchased from ATCC (CRL-1721). PC12 cells were maintained in high glucose DMEM (Gibco, USA) containing 10% heat-inactivated FBS (Gibco, USA), 5% HyClone heat-inactivated horse serum (Cytiva, USA), penicillin (100 units/ml) and streptomycin ([…]) in 6-well plates that were pre-coated with 0.01 mg/ml type IV collagen (Sigma-Aldrich, St. Louis, MO, USA). Cells were transferred to serum-free medium (SFM) 4 h prior to adding effectors, and then treated with SP163M (2.4, 24 or 240 nM); EI-tPA (12 nM), NGF (0.36 nM), or vehicle (PBS) for 10 min. In some cases, cells were pre-incubated with the competitive antagonist of LRP1, GST-RAP (150 nM) for 15 min or electroporated using the Rat Neuron Nucleofector Amaxa Kit (Lonza Biosciences) and incubated with siRNA to silence LRP1 expression (siLRP1; M-094191-01-0010, Dharmacon) for 48 h. Control cells were transfected with non-targeting control (NTC) siRNA (NTC; D-001810-10-05, Dharmacon). […] Equal amounts of protein from cell lysates (20 μg), as determined by BCA Protein Assay (ThermoFisher Scientific, Waltham, MA, USA), were subjected to 10% SDS-PAGE and electro-transferred to nitrocellulose membranes. […]

[1] = test system: capsaicin induced acute pain-related behavior in mice; assay: Intraplantar capsaicin model of acute nociception; assay type: in vivo, mouse; conditions: male mice; SP163M 2 μg/g s.c. or EI-tPA 2 μg/g i.v. 1 h before capsaicin
Description: For the capsaicin studies, male (n=41) and female (n=37) mice were acclimated to the behavior testing facility for at least 1 h. Capsaicin was dissolved in 20% (2-hydroxypropyl)-β-cyclodextrin (Sigma-Aldrich, St. Louis, MO, USA) solution. […] Subsequently, 10 μl of 2 μg/μl capsaicin solution was injected into the plantar area of left hind paw. Immediately after capsaicin injection, mice were placed in a plexiglass box. Two observers, blinded to treatments, recorded the time spent licking and flinching the left hind paw over 10 min.

B1: EI-tPA: Recombinant human enzymatically inactive tissue-type plasminogen activator, known LRP1 agonist (protein)
chain: SYQVICRDEKTQMIYQQHQSWLRPVLRSNRVEYCWCNSGRAQCHSVPVKSCSEPRCFNGGTCQQALYFSDFVCQCPEGFAGKCCEIDTRATCYEDQGISYRGTWSTAESGAECTNWNSSALAQKPYSGRRPDAIRLGLGNHNYCRNPDRDSKPWCYVFKAGKYSSEFCSTPACSEGNSDCYFGNGSAYRGTHSLTESGASCLPWNSMILIGKVYTAQNPSAQALGLGKHNYCRNPDGDAKPWCHVLKNRRLTWEYCDVPSCSTCGLRQYSQPQFRIKGGLFADIASHPWQAAIFAKHRRSPGERFLCGGILISSCWILSAAHCFQERFPPHHLTVILGRTYRVVPGEEEQKFEVEKYIVHKEFDDDTYDNDIALLQLKSDSSRCAQESSVVRTVCLPPADLQLPDWTECELSGYGKHEALSPFYSERLKEAHVRLYPSSRCTSQHLLNRTVTDNMLCAGDTRSGGPQANLHDACQGDSGGPLVCLNDGRMTLVGIISWGLGCGQKDVPGVYTKVTNYLDWIRDNMRP
activation of ERK1/2 in cells transfected with LRP1-specific siRNA (phospho-ERK1/2): ERK1/2 was not activated | activation of ERK1/2 in cells transfected with NTC siRNA (phospho-ERK1/2): robustly activated ERK1/2 | capsaicin induced acute pain-related behavior (time spent licking over 10 min) [1]: blocked the capsaicin induced acute pain-related behavior
